Test results reported in paper PMC9482650, “Quantitative fragmentomics allow affinity mapping of interactomes” (Nature Communications, 2022).

T1: FRMPD1, Q5SYB0
T1 sequence (Q5SYB0 52-145, limits assumed, looked up): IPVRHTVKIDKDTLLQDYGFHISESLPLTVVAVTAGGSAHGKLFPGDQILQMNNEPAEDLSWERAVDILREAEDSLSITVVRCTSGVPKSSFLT

T2: MPP7, Q5T2T1
T2 sequence (Q5T2T1 134-230, limits assumed, looked up): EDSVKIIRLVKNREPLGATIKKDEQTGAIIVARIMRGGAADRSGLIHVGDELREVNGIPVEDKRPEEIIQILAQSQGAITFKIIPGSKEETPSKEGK

T3: SNTG1, Q9NSN8
T3 sequence (Q9NSN8 52-150, limits assumed, looked up): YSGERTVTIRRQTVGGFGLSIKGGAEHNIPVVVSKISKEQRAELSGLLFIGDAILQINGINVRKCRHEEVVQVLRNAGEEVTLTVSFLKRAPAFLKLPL

T4: GRIP1_4, Q9Y3R0
T4 sequence (Q9Y3R0 467-571, limits assumed, looked up): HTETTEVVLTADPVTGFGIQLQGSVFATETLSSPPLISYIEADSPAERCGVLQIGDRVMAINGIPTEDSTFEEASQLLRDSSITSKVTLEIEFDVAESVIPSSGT

T5: MPP6, Q9NZW5
T5 sequence (Q9NZW5 125-219, limits assumed, looked up): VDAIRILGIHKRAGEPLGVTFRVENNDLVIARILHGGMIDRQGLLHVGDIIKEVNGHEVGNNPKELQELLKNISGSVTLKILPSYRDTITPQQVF

T6: LIN7A, O14910
T6 sequence (O14910 103-200, limits assumed, looked up): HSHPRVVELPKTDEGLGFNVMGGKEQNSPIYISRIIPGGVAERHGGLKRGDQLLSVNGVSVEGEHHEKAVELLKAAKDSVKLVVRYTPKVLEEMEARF

T7: CARD11, Q9BXL7
T7 sequence (Q9BXL7 662-765, limits assumed, looked up): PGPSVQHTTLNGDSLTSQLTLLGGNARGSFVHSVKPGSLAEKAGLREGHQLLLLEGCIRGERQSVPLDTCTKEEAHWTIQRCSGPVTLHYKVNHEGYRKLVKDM

T8: DLG3_2, Q92796
T8 sequence (Q92796 221-321, limits assumed, looked up): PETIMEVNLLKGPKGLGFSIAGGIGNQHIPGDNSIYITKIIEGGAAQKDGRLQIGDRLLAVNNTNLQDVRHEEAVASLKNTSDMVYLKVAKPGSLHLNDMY

T9: RAPGEF6, Q8TEU7
T9 sequence (Q8TEU7 525-625, limits assumed, looked up): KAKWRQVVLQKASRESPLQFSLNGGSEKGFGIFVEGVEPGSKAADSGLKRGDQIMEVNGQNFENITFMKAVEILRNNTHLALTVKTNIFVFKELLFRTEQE


Legend:
Test in all cases: holdup assay
Design in all cases: key: below the threshold = too weak to quantify, mostly under pKd 3.1 to 4
Conditions in all cases: plain residues with an end cap or a label only (N-terminal biotin on a linker: ado-ado)
GRIP2_6, Q9C0E4 = target: GRIP2_6, Q9C0E4
FRMPD1, Q5SYB0 = target: T1, FRMPD1, Q5SYB0
MPP7, Q5T2T1 = target: T2, MPP7, Q5T2T1
IL16_3, Q14005 = target: IL16_3, Q14005
MAGI1_2, Q96QZ7 = target: MAGI1_2, Q96QZ7
Inadl_9, Q8NI35 = target: Inadl_9, Q8NI35
SNTG1, Q9NSN8 = target: T3, SNTG1, Q9NSN8
HTRA1, Q92743 = target: HTRA1, Q92743
LDB3, O75112 = target: LDB3, O75112
GRIP1_4, Q9Y3R0 = target: T4, GRIP1_4, Q9Y3R0
DLG1_2, Q12959 = target: DLG1_2, Q12959
MAGI1_1, Q96QZ7 = target: MAGI1_1, Q96QZ7
LNX1_1, Q8TBB1 = target: LNX1_1, Q8TBB1
MPP6, Q9NZW5 = target: T5, MPP6, Q9NZW5
GRIP2_5, Q9C0E4 = target: GRIP2_5, Q9C0E4
FRMPD2_3, Q68DX3 = target: FRMPD2_3, Q68DX3
IL16_4, Q14005 = target: IL16_4, Q14005
HTRA2, O43464 = target: HTRA2, O43464
NHERF4_4, Q86UT5 = target: NHERF4_4, Q86UT5
LIN7A, O14910 = target: T6, LIN7A, O14910
LNX1_3, Q8TBB1 = target: LNX1_3, Q8TBB1
PDZRN4_1, Q6ZMN7 = target: PDZRN4_1, Q6ZMN7
AHNAK1, Q09666 = target: AHNAK1, Q09666
LIMK2, P53671 = target: LIMK2, P53671
GRIP2_4, Q9C0E4 = target: GRIP2_4, Q9C0E4
CARD11, Q9BXL7 = target: T7, CARD11, Q9BXL7
MAST1, Q9Y2H9 = target: MAST1, Q9Y2H9
DLG3_2, Q92796 = target: T8, DLG3_2, Q92796
RAPGEF6, Q8TEU7 = target: T9, RAPGEF6, Q8TEU7

GRIP2_5, Q9C0E4, sequence (Q9C0E4 544-642): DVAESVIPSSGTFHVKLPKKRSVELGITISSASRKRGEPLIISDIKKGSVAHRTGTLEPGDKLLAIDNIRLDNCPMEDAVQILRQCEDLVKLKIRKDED
HTRA1, Q92743, sequence (Q92743 360-477): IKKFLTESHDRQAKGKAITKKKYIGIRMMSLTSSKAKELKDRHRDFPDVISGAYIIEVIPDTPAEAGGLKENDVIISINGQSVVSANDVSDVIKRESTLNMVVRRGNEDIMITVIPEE
Inadl_9, Q8NI35, sequence (Q8NI35 1530-1615): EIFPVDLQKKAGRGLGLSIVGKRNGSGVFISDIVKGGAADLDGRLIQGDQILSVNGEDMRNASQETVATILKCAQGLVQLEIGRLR
MAST1, Q9Y2H9, sequence (Q9Y2H9 962-1065): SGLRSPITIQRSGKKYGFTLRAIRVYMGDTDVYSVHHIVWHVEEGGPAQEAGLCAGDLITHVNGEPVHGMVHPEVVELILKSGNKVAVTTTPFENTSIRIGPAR
LIMK2, P53671, sequence (P53671 143-248): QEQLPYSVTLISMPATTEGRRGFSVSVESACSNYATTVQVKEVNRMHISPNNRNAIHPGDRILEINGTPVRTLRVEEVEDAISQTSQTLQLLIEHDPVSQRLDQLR
IL16_4, Q14005, sequence (Q14005 1229-1329): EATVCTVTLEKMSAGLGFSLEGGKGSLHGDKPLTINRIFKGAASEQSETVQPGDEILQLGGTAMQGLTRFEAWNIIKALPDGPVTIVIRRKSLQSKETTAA
HTRA2, O43464, sequence (O43464 355-458): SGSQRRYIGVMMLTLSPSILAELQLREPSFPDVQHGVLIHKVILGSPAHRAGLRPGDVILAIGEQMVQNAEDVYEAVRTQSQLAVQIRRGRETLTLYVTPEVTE
FRMPD2_3, Q68DX3, sequence (Q68DX3 1073-1166): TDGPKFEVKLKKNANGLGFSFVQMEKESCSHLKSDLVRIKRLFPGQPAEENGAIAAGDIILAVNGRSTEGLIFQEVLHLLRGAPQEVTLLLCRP
LNX1_3, Q8TBB1, sequence (Q8TBB1 500-596): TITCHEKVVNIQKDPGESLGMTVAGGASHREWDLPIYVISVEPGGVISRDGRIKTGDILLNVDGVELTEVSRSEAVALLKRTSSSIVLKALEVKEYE
AHNAK1, Q09666, sequence (Q09666 4-100): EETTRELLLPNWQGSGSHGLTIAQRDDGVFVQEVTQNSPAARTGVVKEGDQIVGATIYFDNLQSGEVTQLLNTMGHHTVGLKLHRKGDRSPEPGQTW
LDB3, O75112, sequence (O75112 1-94): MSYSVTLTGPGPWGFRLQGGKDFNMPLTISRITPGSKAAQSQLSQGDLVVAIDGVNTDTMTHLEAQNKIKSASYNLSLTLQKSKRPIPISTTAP
NHERF4_4, Q86UT5, sequence (Q86UT5 464-550): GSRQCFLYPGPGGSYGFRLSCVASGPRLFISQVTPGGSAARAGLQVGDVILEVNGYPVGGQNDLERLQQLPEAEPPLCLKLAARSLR
IL16_3, Q14005, sequence (Q14005 1107-1207): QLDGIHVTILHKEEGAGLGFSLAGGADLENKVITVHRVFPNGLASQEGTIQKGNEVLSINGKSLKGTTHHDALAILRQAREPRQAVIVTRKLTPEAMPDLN
MAGI1_2, Q96QZ7, sequence (Q96QZ7 456-580): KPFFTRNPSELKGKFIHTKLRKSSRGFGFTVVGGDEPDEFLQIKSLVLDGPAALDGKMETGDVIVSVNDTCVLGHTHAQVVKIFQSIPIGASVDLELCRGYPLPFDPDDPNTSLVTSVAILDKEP
PDZRN4_1, Q6ZMN7, sequence (Q6ZMN7 213-318): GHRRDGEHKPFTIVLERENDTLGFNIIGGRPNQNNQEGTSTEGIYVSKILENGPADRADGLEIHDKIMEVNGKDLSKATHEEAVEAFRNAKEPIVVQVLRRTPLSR
LNX1_1, Q8TBB1, sequence (Q8TBB1 261-371): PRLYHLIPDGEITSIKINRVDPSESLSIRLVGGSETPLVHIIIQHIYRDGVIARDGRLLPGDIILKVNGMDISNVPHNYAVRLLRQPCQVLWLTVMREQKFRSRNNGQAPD
GRIP2_6, Q9C0E4, sequence (Q9C0E4 648-740): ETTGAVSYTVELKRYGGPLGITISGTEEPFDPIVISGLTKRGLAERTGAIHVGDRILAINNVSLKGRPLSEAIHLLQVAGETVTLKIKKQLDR
DLG1_2, Q12959, sequence (Q12959 314-412): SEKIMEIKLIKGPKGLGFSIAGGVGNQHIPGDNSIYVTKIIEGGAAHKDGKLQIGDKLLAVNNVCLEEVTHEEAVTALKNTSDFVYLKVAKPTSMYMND
MAGI1_1, Q96QZ7, sequence (Q96QZ7 1-106): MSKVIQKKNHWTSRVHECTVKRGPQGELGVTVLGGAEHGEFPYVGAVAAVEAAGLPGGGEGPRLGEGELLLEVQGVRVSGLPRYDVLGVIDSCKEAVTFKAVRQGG
GRIP2_4, Q9C0E4, sequence (Q9C0E4 446-548): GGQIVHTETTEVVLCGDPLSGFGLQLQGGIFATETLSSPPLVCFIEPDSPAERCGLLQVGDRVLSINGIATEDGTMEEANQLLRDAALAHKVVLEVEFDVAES

| Binder | pKd (GRIP2_6, Q9C0E4) | pKd (FRMPD1, Q5SYB0) | pKd (MPP7, Q5T2T1) | pKd (IL16_3, Q14005) | pKd (MAGI1_2, Q96QZ7) | pKd (Inadl_9, Q8NI35) | pKd (SNTG1, Q9NSN8) | pKd (HTRA1, Q92743) | pKd (LDB3, O75112) | pKd (GRIP1_4, Q9Y3R0) | pKd (DLG1_2, Q12959) | pKd (MAGI1_1, Q96QZ7) | pKd (LNX1_1, Q8TBB1) | pKd (MPP6, Q9NZW5) | pKd (GRIP2_5, Q9C0E4) | pKd (FRMPD2_3, Q68DX3) | pKd (IL16_4, Q14005) | pKd (HTRA2, O43464) | pKd (NHERF4_4, Q86UT5) | pKd (LIN7A, O14910) | also measured |
| --- | --- | --- | --- | --- | --- | --- | --- | --- | --- | --- | --- | --- | --- | --- | --- | --- | --- | --- | --- | --- | --- |
| ETQVTAETVI [TMEM225B, P0DP42] | below the threshold | below the threshold | below the threshold | below the threshold | below the threshold | below the threshold | 3.9 | 4.31 | below the threshold | below the threshold | 4.37 | below the threshold | 3.59 | below the threshold | below the threshold | below the threshold | below the threshold | below the threshold | below the threshold | below the threshold | pKd (LNX1_3, Q8TBB1): below the threshold; pKd (PDZRN4_1, Q6ZMN7): below the threshold; pKd (AHNAK1, Q09666): below the threshold; pKd (LIMK2, P53671): below the threshold; pKd (GRIP2_4, Q9C0E4): below the threshold; pKd (CARD11, Q9BXL7): below the threshold; pKd (MAST1, Q9Y2H9): 4.31; pKd (DLG3_2, Q92796): 4.43; pKd (RAPGEF6, Q8TEU7): below the threshold |
| SNAGNTATKA [NOSTRIN, Q8IVI9] | below the threshold | below the threshold | below the threshold | below the threshold | below the threshold | below the threshold | below the threshold | below the threshold | below the threshold | below the threshold | below the threshold | below the threshold | below the threshold | below the threshold | below the threshold | below the threshold | below the threshold | below the threshold | below the threshold | below the threshold | pKd (LNX1_3, Q8TBB1): below the threshold; pKd (PDZRN4_1, Q6ZMN7): below the threshold; pKd (AHNAK1, Q09666): below the threshold; pKd (LIMK2, P53671): below the threshold; pKd (GRIP2_4, Q9C0E4): below the threshold; pKd (CARD11, Q9BXL7): below the threshold; pKd (MAST1, Q9Y2H9): below the threshold; pKd (DLG3_2, Q92796): 4.25; pKd (RAPGEF6, Q8TEU7): below the threshold |
| LKVPPEERLI [CRB2, Q5IJ48] | below the threshold | below the threshold | below the threshold | below the threshold | below the threshold | below the threshold | below the threshold | 4.18 | below the threshold | below the threshold | below the threshold | below the threshold | below the threshold | 3.68 | below the threshold | below the threshold | below the threshold | below the threshold | below the threshold | below the threshold | pKd (LNX1_3, Q8TBB1): below the threshold; pKd (PDZRN4_1, Q6ZMN7): below the threshold; pKd (AHNAK1, Q09666): below the threshold; pKd (LIMK2, P53671): below the threshold; pKd (GRIP2_4, Q9C0E4): below the threshold; pKd (CARD11, Q9BXL7): below the threshold; pKd (MAST1, Q9Y2H9): 3.58; pKd (DLG3_2, Q92796): below the threshold; pKd (RAPGEF6, Q8TEU7): below the threshold |

Now from value to binder, other results behind:

| pKd (GRIP2_6, Q9C0E4) | pKd (FRMPD1, Q5SYB0) | pKd (MPP7, Q5T2T1) | pKd (IL16_3, Q14005) | pKd (MAGI1_2, Q96QZ7) | pKd (Inadl_9, Q8NI35) | pKd (SNTG1, Q9NSN8) | pKd (HTRA1, Q92743) | pKd (LDB3, O75112) | pKd (GRIP1_4, Q9Y3R0) | pKd (DLG1_2, Q12959) | pKd (MAGI1_1, Q96QZ7) | pKd (LNX1_1, Q8TBB1) | pKd (MPP6, Q9NZW5) | pKd (GRIP2_5, Q9C0E4) | pKd (FRMPD2_3, Q68DX3) | pKd (IL16_4, Q14005) | pKd (HTRA2, O43464) | pKd (NHERF4_4, Q86UT5) | pKd (LIN7A, O14910) | Binder | also measured |
| --- | --- | --- | --- | --- | --- | --- | --- | --- | --- | --- | --- | --- | --- | --- | --- | --- | --- | --- | --- | --- | --- |
| below the threshold | below the threshold | below the threshold | below the threshold | below the threshold | below the threshold | below the threshold | 3.98 | below the threshold | below the threshold | below the threshold | below the threshold | below the threshold | 3.74 | below the threshold | below the threshold | below the threshold | below the threshold | below the threshold | below the threshold | YRLAQESGLV [ABCC6, O95255] | pKd (LNX1_3, Q8TBB1): below the threshold; pKd (PDZRN4_1, Q6ZMN7): below the threshold; pKd (AHNAK1, Q09666): below the threshold; pKd (LIMK2, P53671): below the threshold; pKd (GRIP2_4, Q9C0E4): below the threshold; pKd (CARD11, Q9BXL7): below the threshold; pKd (MAST1, Q9Y2H9): 3.59; pKd (DLG3_2, Q92796): below the threshold; pKd (RAPGEF6, Q8TEU7): below the threshold |
| below the threshold | below the threshold | below the threshold | below the threshold | 5.1 | below the threshold | below the threshold | 4.04 | below the threshold | below the threshold | 5.54 | below the threshold | 4.04 | below the threshold | below the threshold | below the threshold | below the threshold | below the threshold | below the threshold | 3.68 | SGSLKLMTTV [DACT1, Q9NYF0] | pKd (LNX1_3, Q8TBB1): below the threshold; pKd (PDZRN4_1, Q6ZMN7): below the threshold; pKd (AHNAK1, Q09666): below the threshold; pKd (LIMK2, P53671): below the threshold; pKd (GRIP2_4, Q9C0E4): below the threshold; pKd (CARD11, Q9BXL7): below the threshold; pKd (MAST1, Q9Y2H9): 3.97; pKd (DLG3_2, Q92796): 5.12; pKd (RAPGEF6, Q8TEU7): below the threshold |
